The nanobody polyreactivity screen of Harvey et al. (2022)

Assay: yeast display, Sf9 membrane polyspecificity reagent, FACS + sequencing; frameworks hold sequencing errors
How it was run: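 Galactose induction of a Saccharomyces cerevisiae BJ5465 synthetic nanobody display library ran 36–48 hours. The cells were then stained for 1 hour at 4 °C with 10% biotinylated, detergent-solubilized Sf9 membrane reagent, pulled down on streptavidin microbeads and FACS-sorted into low and high (top ~1%) gates on expression and reagent-binding fluorescence. Labels for polyreactivity follow the gate of origin.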

Sequence	polyreactivity (PSR sort gate)
QVQLVESGGCLVQAGGSLRLMCAASGSTFRVNAMGWSRQAPGKERELVAAITRGGSTNYADSVKGRFTISRDNAKNTVYLQMNSLKPEDTAVYYCNAGDDFGRYVPFSWGRFDYWGQGTQVTESS	low polyreactivity
QVQLVESGGCLVQAGGSLRLSCAASGFIFCGNARGGYIPAPGKERELVAVITRSGGSTYADSVKGRFTISRDNAKNTVYLQMNSLKPEVTAVYYCAADQQTWWQYSLINEYDYWGQGTQVTVSS	low polyreactivity
QVQLVESGGCLVQAGGSLRLSCAASGFIFDPYVMGWYIQAPGKERELVAAITYNGGRTYYADSVKGRFTISRDNAKNTVYLQMNSLKPEDTAVYYCNKDYRIGQTWYDYWGQVTQVTVSS	low polyreactivity
QVQLVESGGCLVQAGGSLRLSCAASGFIFSGYVMGWYRQAPGKERELVARIDGGGTTNYADSVKGRFTISRDNAKNTVYLQMNSLKPADTAVYYCNARFGEGFDYWGQGTQVTVSS	low polyreactivity
QVQLVESGGCLVQAGGSLRLSCAASGFIFSSYAMGWYRQAPGKERELVAAISVSGGSTNYADSVKGRFTISRDNAKNTVFLQMNSLKPEDTAVYYCAARVRDSLVYGGWDDYWGQGTQVTVSS	high polyreactivity
QVQLVESGGCLVQAGGSLRLSCAASGFTFIRYAMGWYRQAPGKERELVAAITVSGTRTYYADSVKGRFTISRDNAKNTVYLQMNSLKPEDTAVYYCNARDVYTGYGMGYWGQGSQVTVSS	high polyreactivity
QVQLVESGGCLVQAGGSLRLSCAASGFTFRWYTMGWYRQAPGKERELVAAITGSGCTTYYADSVKGRFTISRDYAKNSVYLQMNSLKPVDTAVYYCAVVTGSFRTRYTYYYLGQGTQVTVSS	high polyreactivity
QVQLVESGGCLVQAGGSLRLSCAASGFTFRYYAMGWYRQAPGKEREFVAAIRSSGTTTSYADSVKGRFRISRDYAKNTVYLQMNSLKPEDTAVYFCAAGYFGPQQYYYWCQGTQVTVSS	high polyreactivity
QVQLVESGGCLVQAGGSLRLSCAASGFTFSRYNMGWYRQAPGKESELVATISWSGSRTYYADSVKGRFTISRDNAKNTVYLQINSLKPDDTAFYYCNFAPHRQVFYTGQYDYWGQGTQVTVSS	high polyreactivity
QVQLVESGGCLVQAGGSLRLSCAASGFTFWRNVMGWYRQAPGKERELVAVISRGGSTNYADSVKGRFTISRDNAMNTVYLQMNSLKPEDTAVYYCAKYARGPSKVDYWGQGTQVTVSS	high polyreactivity
QVQLVESGGCLVQAGGSLRLSCAASGGTFHRYAMGGYRQAPGKERELVAAISGSGASTYYADSVKGRFTISRDNAKNTVYLQMNSLKPEDTAVYYCNAYSYPYWYRYYYWGQGTQVTVSS	high polyreactivity
QVQLVESGGCLVQAGGSLRLSCAASGGTFSRNAMGWYRQAPGKERELVAAINSSGVSTSYAYSVKGRFTISRDNEKNTVYLQMNSLKPEDTAFYYCAAETSSAEVDYWGQGTQVTVSS	low polyreactivity
QVQLVESGGCLVQAGGSLRLSCAASGITFRYYAMGWYRQAPGKERELVATISYSGGTTYYAESVKGRFTISRDNAKNTVYLQMNSLKPEDTAVYYCKAVYRYKYGYRDYDYWGQGSQVTVSS	high polyreactivity
QVQLVESGGCLVQAGGSLRLSCAASGITFVSNVMGWYRQATGKEREFVAAITGRGDTTYADSVKGRFTISRDNAKNTVYLQMNSLKPEDTAVYYCAAEYSVPYRGWDGYEYWGQGTQVTVSS	low polyreactivity
QVQLVESGGCLVQAGGSLRLSCAASGLTFGSYGMGWYRQAPGKERELVAAITATGGSTYYADSVKGRFTISRDNAKNTVYLQMNSLKPEDTAVYYCAATRRSKVWLYGYWGQGTQVTVSS	high polyreactivity
QVQLVESGGCLVQAGGSLRLSCAASGLTFNKNAMGWYRQAPGKEREFVAAITRRGGSTYYADSVKGRFTISRDNAKNTVYLQMNSLKPEDTAVYYCAVYPASVNPYHYDYWGQGTQVTVSS	high polyreactivity
QVQLVESGGCLVQAGGSLRLSCAASGNIIVGNDMGWYRQAPGKERELGAAISSGDTTSYADSVKGRFTISRDNAKNTVFLQMISLKPEDTAVYYCAAGFTYPYDYWGQGTQVTVSS	low polyreactivity
QVQLVESGGCLVQAGGSLRLSCAASGRIFDRNAMGWYRQAPGKERELVARIDPGDDTNYADSVKGRFTISRDNAKNTVYLQMNSLKPEDTAVYYCATDPDYVLYRTAYYEYDYWGQGTQVTVSS	low polyreactivity
QVQLVESGGCLVQAGGSLRLSCAASGRIFFLYAMGWYRQAPGKERELVAAITWSADGTYYADSVKGRFTISRDNAKNTVYLQMNSLKPEDTAVYYCNADAYTTASSYNWWYYYWGQGTQVTVSS	low polyreactivity
QVQLVESGGCLVQAGGSLRLSCAASGRIFTTNAMGWYRQAPGKERELVAAITYSGGTTYYADSVKGRFTISRDNAKKTVYLQMNSLKPEDTAVYYCAADVKFSTPYDYWGQGTQVTVSS	low polyreactivity
QVQLVESGGCLVQAGGSLRLSCAASGRTFIGYAMGWYRQAPGKERELVAAISSTGGSTYYADSVKGRFTISRDNAKNTVYLQMNSLKPEDTAVYYCATDAARPPRTPDISDVSNFDYWGQGTQVTVSS	low polyreactivity
QVQLVESGGCLVQAGGSLRLSCAASGRTFRGYAMGWYRQAPGKERELVARISVSGGSTYYADSVKGRFTISRDNAKNTVYLQMNSLTPDDTAVYYCNARPYTYWRSQYDYWGQGTQVTVSS	high polyreactivity

Sequence	polyreactivity (PSR sort gate)
QVQLVESGGCLVQAGGSLRLSCAASGRTLYRNAMGWYRPAPGKERELVARITWSGASTYYADSVKGRFTISRDNAKNTVYLQMNSLKPEDTAVYYCAAQYLSRRYGPYYTYNYWGQGTQVTVSS	high polyreactivity
QVQLVESGGCLVQAGGSLRLSCAASGRTYVVNAMGWYRHAPGKESELVAAITTGGSTYYADSVKGRFTISRENAKYTVYLQMNSLKPEDTAVYYCAADIYLYYIFDYWVDYDYWGQCTQVTVSS	high polyreactivity
QVQLVESGGCLVQAGGSLRLSCAASGSIFDRYAMGWYRQAPGKERGLVAAISSSGGSTYYADSVKGRFTISRDNAKNTVYLQMNSLKPEDTAVYYCAAEYYASPYYWSYDYWGQGTQVTVSS	high polyreactivity
QVQLVESGGCLVQAGGSLRLSCAASGSIFIYYAMGWYRQAPGKERELVATISVRGGSTYYADSVKGRFTISRDNAKNTVYLQMNSLKPEDTAVYYCNAVTSGTTKSAYDYWGQGTQVTVSS	high polyreactivity
QVQLVESGGCLVQAGGSLRLSCAASGSIFTKYTMGWYRQAPGRERELVAAITLRGTSTYYADSVKGRFTISRDIAKNTVYLQMNSLKPEDTAVYYCNKLYSWVVAYDYWGQGTQVTVSS	high polyreactivity
QVQLVESGGCLVQAGGSLRLSCAASGSIFTRYAMGWYRQAPGKERELVADIRWGGGDTYYADSVKGRFTISRDNAKNTVYLQMNSLKPEDTAVYYCNADFGAPNTGRPEVQNSDEFGYWGQGTQVTVSS	low polyreactivity
QVQLVESGGCLVQAGGSLRLSCAASGSIFWSYSMGWYRQAPGKERELVAAISSGGSTNYADSVKGRFTISRDNAKNTVYLQMNSLKPEDTAVYYCSARFYTTSVRRKRYDYWGQGTQVTVSS	high polyreactivity
QVQLVESGGCLVQAGGSLRLSCAASGSIFYYYAMGWYRQAPGKERELVADISISGGSTYYADSVKGRFTISRDNAKNTVYLQMNSLKPEDTAVYYCAATDYLWEPTVSNWGYTFDSWGQGTQVTVSS	low polyreactivity
QVQLVESGGCLVQAGGSLRLSCAASGSISTNYAMGWYRQAPGKERELVAAISDSSGSTYYADSVKGRFTISRDNAKNTVYLQMNSLKPVDTAVYYCNADSQGGRDVHYDYEYYYWGQGTQVTVSS	low polyreactivity
QVQLVESGGCLVQAGGSLRLSCAASGSSFSRYTMGWYSQAPGKERELVAVISDSSGRTYYADSVKGRFTISRDTAKNTVYLQMNSLKPEDTAVYYCAAEYSDIYEYCGQGTQVTVSS	low polyreactivity
QVQLVESGGCLVQAGGSLRLSCAASGSTFDGNAMGWYRQAPGKERELVATINSGSSTTYADSVKGRFTISRDNAKNTVYLQMNSLKPEDTAVYYCNVDSGSDSLVYSVRYNYWGQGTQVTVSS	low polyreactivity
QVQLVESGGCLVQAGGSLRLSCAASGSTFIDYAMGWYRQAPGKERELVAAITNGGNTKYADSVKGRFTISRDNAKNTVYLQMNSLKPEDTAVYYCAREPSIFTPSYDYWGQGTQVTVSS	low polyreactivity
QVQLVESGGCLVQAGGSLRLSCAASGSTFLINAMGWYRQAPGKEREFVASIRYRGATTYADSVKGRFTISRDNAKNTVYLQMNTLKPEDTAVYYCAASIWLRYHWGYDYWGQGTQVTVSS	high polyreactivity
QVQLVESGGCLVQAGGSLRLSCAASGSTFPRYAMGWYRQAPGKERELVATINSGGSTYYADSVKGCFTISRDNAKNTVYLQMNSLKPEDTAVYYCAAGYRWTYTSGTYIRYNYWGQGTQVTVSS	high polyreactivity
QVQLVESGGCLVQAGGSLRLSCAASGSTFSPYAMGWYRQAPGKERELVAGITGRGGRTYYADSVKGRFTISRDNAKNTVYLQMNSLKPEDTAVYYCAAKYYGNKRDLYYWGQGTQVTVSS	low polyreactivity
QVQLVESGGCLVQAGGSLRLSCAASGSTFVHNAMGWYRQAPGKERELVAAISESGGGTYYADSVKGRFTISRDNAKNTVYLQMNSLKPEDTAVYYCAAPPAGENWRDGGGYWGQGTQVTVSS	low polyreactivity
QVQLVESGGCLVQAGGSLRLSCAASGYTFSLNAMGWYRQAPGKERELVAAISYSGGSTYYADSVKGRFTISRDNAKNTVYLQMNSLKPEDTAVYYCAVRRPQYSYYWDFDYWGQGTQLTVSS	high polyreactivity
QVQLVESGGCLVQAGGSLRLSCAATGFIFYPDAKGWYRQAPGTEMELVAVITSGGRTYYADSVKGRFTITRDNAKNTVYLQMNSLKPEDTAVYYCAALYLGLWPTDIFDYWGQGTQVTVSS	low polyreactivity
QVQLVESGGCLVQAGGSLRLSCAAYGSIFGGNAMGWYRQAPRKERELVAAITQSGDRTYYADSVKGRFTISRDNANNTFYFQMNSLKPEDTAVYYSAARSPRKYGSIGYYWGQGTQVTVSS	high polyreactivity
QVQLVESGGCLVQAGGSLRLSCASSGFTIWQNAMGWYRQAPGKERELVAGIRLSGGSTYADSEKGRFTISRDNAKNTVYLQMNSLKPEDTAVYYCAARIAGYYRYRSLRYDYWGQGTQGTVSS	high polyreactivity
QVQLVESGGCLVQAGGSLRLSGAASGSISYRNSMGWYRQAPGKERELVAAISSRGGSTFYADSEKGRFTISRDNAKNTVYLQMNSLKPEDTAVYYCAARGYHRFKNVNYWGQGTQVTVSS	high polyreactivity
